From the supplement of paper PMC9112550, “Optimization of the antimicrobial peptide Bac7 by deep mutational scanning” (BMC Biology, 2022)

System: Escherichia coli TOP10
Test: shrunken log2 fold change of peptide-encoding DNA abundance (4.5 h post-induction vs induction); higher = less antimicrobial activity (less host growth inhibition)
Conditions: time post-induction: 4.5 h; library: site-saturation at positions 5, 18, 19, 20
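Further: peptides expressed intracellularly from a pBAD plasmid library in pooled LB shake-flask culture, induced with 0.3% L-arabinose, DNA abundance read by NGS, three biological replicates, DESeq2 with apeglm shrinkage.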

| Sequence | shrunken log2 fold change |
| --- | --- |
| RRIRFRPPRLPRPRPRPMVLPRP | -0.0723 |
| RRIRQRPPRLPRPRPRPAGNPRP | -0.0449 |
| RRIRFRPPRLPRPRPRPRMRPRP | 0.608 |
| RRIRMRPPRLPRPRPRPCPPPRP | 0.106 |
| RRIRFRPPRLPRPRPRPVWQPRP | 0.0042 |
| RRIRLRPPRLPRPRPRPTVKPRP | -0.0583 |
| RRIRKRPPRLPRPRPRPHDEPRP | 0.261 |
| RRIRCRPPRLPRPRPRPFSTPRP | -0.472 |
| RRIRYRPPRLPRPRPRPNVKPRP | -0.386 |
| RRIRWRPPRLPRPRPRPYQHPRP | -0.692 |
| RRIRSRPPRLPRPRPRPVWGPRP | 0.185 |
| RRIRARPPRLPRPRPRPMSYPRP | 0.163 |
| RRIRARPPRLPRPRPRPHMPPRP | -0.419 |
| RRIRERPPRLPRPRPRPCFSPRP | -0.0538 |
| RRIRMRPPRLPRPRPRPLVCPRP | 0.368 |
| RRIRLRPPRLPRPRPRPMPHPRP | 0.0155 |
| RRIRDRPPRLPRPRPRPEWDPRP | 1.4 |
| RRIRQRPPRLPRPRPRPYTAPRP | -0.219 |
| RRIRVRPPRLPRPRPRPETIPRP | 0.0608 |
| RRIRCRPPRLPRPRPRPGWPPRP | 0.63 |

| Sequence | shrunken log2 fold change |
| --- | --- |
| RRIRFRPPRLPRPRPRPWQTPRP | -0.0222 |
| RRIRNRPPRLPRPRPRPYKQPRP | -0.0495 |
| RRIRFRPPRLPRPRPRPIMEPRP | -0.319 |
| RRIRMRPPRLPRPRPRPNRWPRP | 0.394 |
| RRIRNRPPRLPRPRPRPASMPRP | -0.064 |
| RRIRCRPPRLPRPRPRPIATPRP | 0.366 |
| RRIRDRPPRLPRPRPRPFKYPRP | 0.0966 |
| RRIRPRPPRLPRPRPRPHKWPRP | -0.216 |
| RRIRMRPPRLPRPRPRPERHPRP | 0.764 |
| RRIRLRPPRLPRPRPRPRIYPRP | -0.636 |
| RRIRFRPPRLPRPRPRPPQIPRP | 0.241 |
| RRIRVRPPRLPRPRPRPAQSPRP | 0.107 |
| RRIRLRPPRLPRPRPRPRLLPRP | 0.167 |
| RRIRERPPRLPRPRPRPDIIPRP | 0.0463 |
| RRIRYRPPRLPRPRPRPPRLPRP | 0.0944 |
| RRIRIRPPRLPRPRPRPMKVPRP | -0.00968 |
| RRIRVRPPRLPRPRPRPYVAPRP | -0.643 |
| RRIRVRPPRLPRPRPRPISQPRP | -0.261 |
| RRIRPRPPRLPRPRPRPAMFPRP | 0.0516 |
| RRIRTRPPRLPRPRPRPWMHPRP | 0.032 |

| Sequence | shrunken log2 fold change |
| --- | --- |
| RRIRFRPPRLPRPRPRPKTKPRP | 0.0287 |
| RRIRRRPPRLPRPRPRPQNHPRP | -0.191 |
| RRIRFRPPRLPRPRPRPCWEPRP | -0.356 |
| RRIRVRPPRLPRPRPRPPNLPRP | 0.239 |
| RRIRWRPPRLPRPRPRPIPIPRP | -0.12 |
| RRIRERPPRLPRPRPRPNTFPRP | -0.388 |
| RRIRNRPPRLPRPRPRPHTAPRP | -0.158 |
| RRIRIRPPRLPRPRPRPKGDPRP | 0.424 |
| RRIRYRPPRLPRPRPRPDTRPRP | -0.153 |
| RRIRWRPPRLPRPRPRPSRRPRP | 0.215 |
| RRIRMRPPRLPRPRPRPWHKPRP | -0.00776 |
| RRIRQRPPRLPRPRPRPIRQPRP | 0.0167 |
| RRIRCRPPRLPRPRPRPHYWPRP | -0.783 |
| RRIRERPPRLPRPRPRPHKEPRP | -0.189 |
| RRIRHRPPRLPRPRPRPMYDPRP | 0.0149 |
| RRIRFRPPRLPRPRPRPMMPPRP | -0.0286 |
| RRIRGRPPRLPRPRPRPSYVPRP | 0.112 |
| RRIRPRPPRLPRPRPRPEGNPRP | 0.189 |
| RRIRKRPPRLPRPRPRPIWDPRP | -0.0152 |
| RRIRCRPPRLPRPRPRPMLYPRP | -0.189 |
